The RNAGym collection of RNA variant scans (doi:10.7554/elife.90254)

B1: LINE1-mini (parent)
chain: GGCAGAGCUCAACACAGCGUGGCAAAGUGGCUGUGGCUAGACUGCC

Variants of: B1
Assay: self-cleavage, relative activity (ratio to wild type); higher = more cleavage; in vitro, sequencing; the parent is a self-cleaving ribozyme

Row | Variant | self-cleavage
1 | GGCAAAGCUCAACACAGCGUGGCAAAGUGGCUGUGGCUAGACUGCG [G5A C46G] | 0.16
2 | GGCAGAGCUAAACACAGCGUGGCAAAUUGGCUGUGGCUAGACUGCC [C10A G27U] | 0.06
3 | GGCAGAGCUCAACACAGCGUGGCAAAGUGGCUCUGGCAAGACUGCC [G33C U38A] | 0.04
4 | GGCAGAGCUCAACACAGCGUGGCAAAGUGGCUGUGGCUAGAGAGCC [C42G U43A] | 0.06
5 | GGCAGAGCUCAAGACAGCGUGGCAAAGCGGCUGUGGCUAGACUGCC [C13G U28C] | 0.36
6 | GGCAGAGCUCAACACAGCGGGGCAAAGUGGGUGUGGCUAGACUGCC [U20G C31G] | 0.04
7 | GGCAGAGCUCGACACAGCGUGGCAAAAUGGCUGUGGCUAGACUGCC [A11G G27A] | 0.02
8 | GGCAGAGCUCCACAUAGCGUGGCAAAGUGGCUGUGGCUAGACUGCC [A11C C15U] | 0.03
9 | GGCAGACCUCAACACAGCGUGGCAAAGUGGCUGGGGCUAGACUGCC [G7C U34G] | 0.02
10 | GGCAGAACUCAACACAGCGUGGCAAAGUGGCUGUGGCUCGACUGCC [G7A A39C] | 0.08
11 | GGCAGAGCUCAACACAGCGUGGCAAAGUGGCCGUGCCUAGACUGCC [U32C G36C] | 0.04
12 | GGCAGAGCUGCACACAGCGUGGCAAAGUGGCUGUGGCUAGACUGCC [C10G A11C] | 0.02
13 | GGCAGAGCUCAACACAGCGAGGCAAAGUGGCUGUGGCUAGAAUGCC [U20A C42A] | 0.11
14 | GGGAGAGCUCAACACAGCGUGGCAAAGUGGCUCUGGCUAGACUGCC [C3G G33C] | 0.12
15 | GGCAGAGCUCAACACAGCGUGGGAAAGUAGCUGUGGCUAGACUGCC [C23G G29A] | 1.01
16 | GGCAGAGCUCAACACAGCGUGGCAAAGUGGCUGUGGCAUGACUGCC [U38A A39U] | 0.85
17 | GGCAGAACUAAACACAGCGUGGCAAAGUGGCUGUGGCUAGACUGCC [G7A C10A] | 0.05
18 | GGCAGAGCUCCACACGGCGUGGCAAAGUGGCUGUGGCUAGACUGCC [A11C A16G] | 0.05
19 | GGCAGAGCUCAACACAGCGUGGCAAAGUGGCUGUGACUAGACGGCC [G36A U43G] | 0.01

Row | Variant | self-cleavage
20 | GGCAGAGAUCAACACAGCGUGGCAAAGUGGCUGUGGCUUGACUGCC [C8A A39U] | 0.45
21 | AGCAGAGCUCAACACAGCGUGGCAAAGUGGCUCUGGCUAGACUGCC [G1A G33C] | 0.05
22 | GGCAGAGCUCAACACAGUGUGGCAGAGUGGCUGUGGCUAGACUGCC [C18U A25G] | 0.26
23 | GGCAGAGCUCAACACAGCGUAGCAAAGUGGCUGAGGCUAGACUGCC [G21A U34A] | 0.08
24 | GGCAGAGAUCAACACAGCGUGGCAAAGUGGCUGUGGCUAGACCGCC [C8A U43C] | 0.17
25 | GGCAGAGCUCAACAAAGCGUGGCAAAGCGGCUGUGGCUAGACUGCC [C15A U28C] | 0.12
26 | GGCAGAGCUCCACACAGCGUGGCAAAGUGGCUGUGGCCAGACUGCC [A11C U38C] | 0.04
27 | GGCAGAGCUCUACACAGCGUGGCAAAGUGGCUGUUGCUAGACUGCC [A11U G35U] | 0.02
28 | GGCAGAGCUCAACACAGCGUGGCGAGGUGGCUGUGGCUAGACUGCC [A24G A26G] | 0.5
29 | GGCAGAGCUCAACACAGCGUGGCAAAGUGGCUGAGGCUGGACUGCC [U34A A39G] | 0.05
30 | GGCAGAGCUCAACACAGCGUGGCAAAGUGGCUGUAGCGAGACUGCC [G35A U38G] | 0.02
31 | GGCAGAGCUCAACACAGCGUACCAAAGUGGCUGUGGCUAGACUGCC [G21A G22C] | 0.38
32 | GGCAGAGCUCAACACAGCGUGGCAAAGUGGCUGUGGCGAGGCUGCC [U38G A41G] | 0.14
33 | GGCAGAGCUCAACAAAGCGUGGCACAGUGGCUGUGGCUAGACUGCC [C15A A25C] | 0.04
34 | GGCAGAGAUCAACACAGCGUGGCAAAGUGGCUGAGGCUAGACUGCC [C8A U34A] | 0.25
35 | GGCAGAGCUCAACACAGCGUGUCAAAGUGGCUGUAGCUAGACUGCC [G22U G35A] | 0.15
36 | GGCAGAGCUCAACACAGCGUGGCCCAGUGGCUGUGGCUAGACUGCC [A24C A25C] | 0.73
37 | UGCAGAGCUCAACACGGCGUGGCAAAGUGGCUGUGGCUAGACUGCC [G1U A16G] | 0.22
38 | GGCAGAGCUCAACACAGCGUGGCAAGGUGGCUGUGGCUAGACUACC [A26G G44A] | 0.31

Row | Variant | self-cleavage
39 | GUCAGAGCUCAACACAGCGUGGCAAAGUGGGUGUGGCUAGACUGCC [G2U C31G] | 0.03
40 | GGCAGAGCUCAACACAGCGUGGCAAUGUGGCUGUGGCUAGACGGCC [A26U U43G] | 0.09
41 | GGGCGAGCUCAACACAGCGUGGCAAAGUGGCUGUGGCUAGACUGCC [C3G A4C] | 0.11
42 | GGCAGAGCUCAACUCAGGGUGGCAAAGUGGCUGUGGCUAGACUGCC [A14U C18G] | 0.19
43 | GACAGCGCUCAACACAGCGUGGCAAAGUGGCUGUGGCUAGACUGCC [G2A A6C] | 0.33
44 | GGCAGAGCUCAACACAGCGUGGCAAAGUGGCUGUGGCUAAACGGCC [G40A U43G] | 0.09
45 | GGCAGAGCUCAACACAGCGUGGCAAAGUGGCUGUGGUUAGAUUGCC [C37U C42U] | 0.1
46 | GGCAGAGCUCAACACAGCGUGGCAAAGAGGCGGUGGCUAGACUGCC [U28A U32G] | 0.3
47 | GGCAGAUCUCAACACAGCGUGGCAAAGUUGCUGUGGCUAGACUGCC [G7U G29U] | 0.15
48 | GGCAGAGCUCAACACAGCGUGGCAAACUCGCUGUGGCUAGACUGCC [G27C G29C] | 0.37
49 | GGCAGUGCUCAAGACAGCGUGGCAAAGUGGCUGUGGCUAGACUGCC [A6U C13G] | 0.28
50 | GGCAGAGCUCAACGCAGCGUGGCAAAGUGGCUGUGGUUAGACUGCC [A14G C37U] | 0.19
51 | GGCAGAGCUCAACACAGCGUGGCAAAGUGGCUGUGGCUAGCCUACC [A41C G44A] | 0.05
52 | GGCAGAUCUCAACACAGCCUGGCAAAGUGGCUGUGGCUAGACUGCC [G7U G19C] | 0.05
53 | GGCAGAGCUCAACACAGCGUGGCAAAGUGGCAGUGGCUAGACUGCA [U32A C46A] | 0.08
54 | GGUAGAGCUCAACACAGCGUGGCAAAGUGGCUGUGGCUAGAGUGCC [C3U C42G] | 0.07
55 | GGCAGAGCUCAACACAGCGUGGAAAAGUGGCUGUAGCUAGACUGCC [C23A G35A] | 0.23
56 | GGCAGAGCUCAACACAGCGUGGUAAAGUGGCUGUGGCAAGACUGCC [C23U U38A] | 0.47
